From patent US10967068B2, “Stability-modulating linkers for use with antibody drug conjugates” (priority 2014, dated 2021) come the findings set out here.

Like-named read-outs stand apart in the source and are kept apart here. *1 amine or outer side, *2 acyl side, *3 side chain or, on linkers, in order; H or OH if unused. Where a SMILES comes first, the peptide text is derived from it. [ ]: non-standard residue; d: D form. The star is where a group is joined. Dolaproine = CO[C@@H]([C@@H]1CCCN1)[C@@H](C)C(=O)O; Dil = CC[C@H](C)[C@H](NC)[C@@H](CC(=O)O)OC; Benzenesulfonyl = O=S(=O)(c1ccccc1)*; PABC = O=C(OCc1ccc(N[*:1])cc1)[*:2]; Doe = c1ccc(C[C@H](N*)c2nccs2)cc1; Cit = NC(=O)NCCC[C@H](N)C(=O)O; X1 = NCCOCCOCCOCCOCCOCC*; Aib = CC(C)(N)C(=O)O; Ethyl(2-NH2) = NCC*; X3 = NCCOCC*

One data set deals with T1, mouse plasma enzyme (Mus musculus, UniProt P23953).
T1 construct: 100-200 ug of ADC were incubated in mouse plasma (provided by Bioreclamation); tissue Bioreclamation; host or cells: mouse plasma
T1 sequence (P23953 19-554): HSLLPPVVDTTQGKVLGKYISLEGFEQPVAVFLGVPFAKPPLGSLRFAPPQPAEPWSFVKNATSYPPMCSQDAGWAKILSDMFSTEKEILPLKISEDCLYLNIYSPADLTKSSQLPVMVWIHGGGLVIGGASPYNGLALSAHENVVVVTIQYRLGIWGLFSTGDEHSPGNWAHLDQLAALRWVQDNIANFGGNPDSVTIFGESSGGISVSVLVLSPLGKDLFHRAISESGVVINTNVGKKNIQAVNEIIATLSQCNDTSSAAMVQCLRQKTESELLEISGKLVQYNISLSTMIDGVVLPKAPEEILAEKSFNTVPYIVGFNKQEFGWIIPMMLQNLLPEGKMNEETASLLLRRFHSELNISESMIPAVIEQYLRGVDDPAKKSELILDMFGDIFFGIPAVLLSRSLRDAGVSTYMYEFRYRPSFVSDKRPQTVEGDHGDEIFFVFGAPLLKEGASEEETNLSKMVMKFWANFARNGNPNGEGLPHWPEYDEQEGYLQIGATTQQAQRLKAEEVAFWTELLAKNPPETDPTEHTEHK
In kind it is biochemical. The text has this:
First, Balb/c serum (BioreclamationIVT) was depleted of IgG and albumin using commercially available MabSelect Protein A and Protein G resins (GE Healthcare), followed by Qproteome Murine Albumin Depletion Kit (Qiagen). The depleted serum was then subjected to sequential precipitation with ammonium sulfate. Fractions with the highest linker hydrolase activity were then applied to cation exchange HiTrap SP column (GE Healthcare) using step gradient elutions with sodium chloride. After that, SP fractions with the highest activity were applied to anion exchange HiTrap Q column (GE Healthcare) using step gradient elutions with sodium chloride. Fractions with the highest hydrolase activity were then combined and size fractionated using Superdex 200 column (GE Healthcare). […] To verify the correct identification of mouse Carboxylesterase 1C as the plasma enzyme responsible for linker cleavage, the recombinant protein was expressed in Expi 293 cells, and purified using a HIS tag following standard protocols.

Data set [1] in a line: In Vitro Stability Assay—Mouse Plasma. In kind it is in vitro ADME. The conditions noted are these: for DAR: before plasma incubation.
Description: 100-200 ug of ADC were incubated in mouse plasma (provided by Bioreclamation) supplemented with 1×PBS to the final ADC concentration of 0.125 mg/mL. Following incubation for 3-7 days, samples were diluted with an equal volume of 1×PBS, and ADCs were isolated using Trop2 antigen coupled to CNBr-activated Sepharose (GE Healthcare) using standard protocols. Drug-antibody ratios were assessed before and after in vitro exposure using HIC methods and mass spectrometry.
DAR values for conjugates purified after plasma incubation were compared to DAR values prior to plasma treatment.
Data set [2] is described as follows: Stability in SCID mouse plasma of linker-payloads conjugated to Combo_Rd4_0.6nM_C29 anti-BCMA antibody. Type of data set: in vitro ADME. The conditions noted are these: LCQ05 tag.
Setting [3] is: Trop-2 antibody attachment position TG6, HIC or mass spectrometry.
Where [4] appears, read: attachment position L11B, % DAR remaining after plasma 3 or 4.5 days.

As for `O=[N+]([O-])c1ccc(OP(=O)(O)Oc2ccc([N+](=O)[O-])cc2)cc1` [BNPP], the “inhibition of the mouse plasma enzyme (linker cleavage)” value at mouse plasma enzyme is recorded as “inhibited”.

As for `CC[C@H](C)[C@@H]([C@@H](CC(=O)N1CCC[C@H]1[C@H](OC)[C@@H](C)C(=O)N[C@@H](Cc1ccccc1)c1nccs1)OC)N(C)C(=O)[C@@H](NC(=O)C(C)(C)NC(=O)OCc1ccc(NC(=O)[C@H](CCCNC(N)=O)NC(=O)[C@@H](NC(=O)[C@H](CCCCN)NS(=O)(=O)c2ccccc2)C(C)C)cc1)C(C)C` [Example 45, N˜2˜-(phenylsulfonyl)lysyl-L-valyl-N-{4-[(8S,11S,12R)-11-[(2S)-butan-2-yl]-12-(2-{(2S)-2-[(1R,2R)-1-methoxy-2-methyl-3-oxo-3-{[(1S)-2-phenyl-1-(1,3-thiazol-2-yl)ethyl]amino}propyl]pyrrolidin-1-yl}-2-oxoethyl)-5,5,10-trimethyl-3,6,9-trioxo-8-(propan-2-yl)-2,13-dioxa-4,7,10-triazatetradec-1-yl]phenyl}-N˜5˜-carbamoylornithinamide] (Benzenesulfonyl-KV[Cit][PABC][Aib]V[Dil][Dolaproine]-Doe), the DAR worked out at 1.42 in data set [1] (setting [3]) and 0.66 in data set [1] (attachment position L11B). The “DAR after plasma incubation for 3 to 4.5 days” value (“DAR … to 4.5 days” below) in data set [1] (attachment position L11B) was 0; in data set [1] (attachment position TG6, plasma species not printed in table (values match mouse plasma, Table 4)), 0.04. Further, the “Conjugate stability (%)” value in data set [1] (setting [4]) was 0%; in data set [1] (attachment position TG6, % DAR remaining after incubation in plasma for 3 or 4.5 days) it was 3%.

As for `CC[C@H](C)[C@@H]([C@@H](CC(=O)N1CCC[C@H]1[C@H](OC)[C@@H](C)C(=O)N[C@@H](Cc1ccccc1)c1nccs1)OC)N(C)C(=O)[C@@H](NC(=O)C(C)(C)NC(=O)OCc1ccc(NC(=O)[C@H](CCCNC(N)=O)NC(=O)[C@@H](NC(=O)[C@@H](COCCN)NC(C)=O)C(C)C)cc1)C(C)C` [Example 46, N-acetyl-O-(2-aminoethyl)-D-seryl-L-valyl-N-{4-[(8S,11S,12R)-11-[(2S)-butan-2-yl]-12-(2-{(2S)-2-[(1R,2R)-1-methoxy-2-methyl-3-oxo-3-{[(1S)-2-phenyl-1-(1,3-thiazol-2-yl)ethyl]amino}propyl]pyrrolidin-1-yl}-2-oxoethyl)-5,5,10-trimethyl-3,6,9-trioxo-8-(propan-2-yl)-2,13-dioxa-4,7,10-triazatetradec-1-yl]phenyl}-N˜5˜-carbamoylornithinamide] (Ac-[dS](Ethyl(2-NH2))V[Cit][PABC][Aib]V[Dil][Dolaproine]-Doe), in data set [1] (attachment position L11B), the “DAR … to 4.5 days” value was 0.69 and the DAR is 1.36. In data set [1] (setting [4]), the “Conjugate stability (%)” value amounted to 51%.

Take `CC[C@H](C)[C@@H]([C@@H](CC(=O)N1CCC[C@H]1[C@H](OC)[C@@H](C)C(=O)N[C@@H](Cc1ccccc1)c1nccs1)OC)N(C)C(=O)[C@@H](NC(=O)C(C)(C)NC(=O)OCc1ccc(NC(=O)[C@H](CCCNC(N)=O)NC(=O)[C@@H](NC(=O)[C@H](COCCOCCN)NC(C)=O)C(C)C)cc1)C(C)C` [Example 47, N-acetyl-O-[2-(2-aminoethoxy)ethyl]-L-seryl-L-valyl-N-{4-[(8S,11S,12R)-11-[(2S)-butan-2-yl]-12-(2-{(2S)-2-[(1R,2R)-1-methoxy-2-methyl-3-oxo-3-{[(1S)-2-phenyl-1-(1,3-thiazol-2-yl)ethyl]amino}propyl]pyrrolidin-1-yl}-2-oxoethyl)-5,5,10-trimethyl-3,6,9-trioxo-8-(propan-2-yl)-2,13-dioxa-4,7,10-triazatetradec-1-yl]phenyl}-N˜5˜-carbamoylornithinamide] (Ac-S(X3)V[Cit][PABC][Aib]V[Dil][Dolaproine]-Doe): in data set [1] (attachment position L11B), the “DAR … to 4.5 days” value is reported as 0.40 and the DAR was 1.96. For the same compound, the “Conjugate stability (%)” value in data set [1] (setting [4]) came to 20%.

With `CC[C@H](C)[C@@H]([C@@H](CC(=O)N1CCC[C@H]1[C@H](OC)[C@@H](C)C(=O)N[C@@H](Cc1ccccc1)c1nccs1)OC)N(C)C(=O)[C@@H](NC(=O)C(C)(C)NC(=O)OCc1ccc(NC(=O)[C@H](CCCNC(N)=O)NC(=O)[C@@H](NC(=O)[C@H](COCCOCCOCCOCCOCCOCCN)NC(C)=O)C(C)C)cc1)C(C)C` [Example 48, N-acetyl-O-(17-amino-3,6,9,12,15-pentaoxaheptadec-1-yl)-L-seryl-L-valyl-N-{4-[(8S,11S,12R)-11-[(2S)-butan-2-yl]-12-(2-{(2S)-2-[(1R,2R)-1-methoxy-2-methyl-3-oxo-3-{[(1S)-2-phenyl-1-(1,3-thiazol-2-yl)ethyl]amino}propyl]pyrrolidin-1-yl}-2-oxoethyl)-5,5,10-trimethyl-3,6,9-trioxo-8-(propan-2-yl)-2,13-dioxa-4,7,10-triazatetradec-1-yl]phenyl}-N˜5˜-carbamoylornithinamide] (Ac-S(X1)V[Cit][PABC][Aib]V[Dil][Dolaproine]-Doe), in data set [1] (attachment position L11B), the “DAR … to 4.5 days” value worked out at 0 and the DAR turned out to be 1.94. Further, the “Conjugate stability (%)” value in data set [1] (setting [4]) amounted to 0%.

As for `Cl.NCCc1ccc(S(=O)(=O)F)cc1` [Pefabloc], the “inhibition of the mouse plasma enzyme (linker cleavage)” value against mouse plasma enzyme (1 mM, in vitro stability assay with anti-Trop2 L11B C6 vc0101 conjugate as substrate) is given as “inhibited”.

In the case of “Ac-Lys-Val-Cit-PABC-0101 [reference compound]”, the DAR in data set [2] (Combo_Rd4_0.6nM_C29 anti-BCMA antibody, before incubation, HIC) is 2.0; in data set [1] (attachment position H16), 1.94. Also, the “Conjugate stability (%)” value was determined as 99% in data set [2] (anti-BCMA antibody, % DAR remaining after SCID mouse plasma 4.5 days) and 100% in data set [1] (attachment position H16, % DAR remaining after plasma 3 or 4.5 days). Also, the “DAR after plasma incubation for 4.5 days” value in data set [2] (anti-BCMA antibody, SCID mouse plasma) is 1.98. In data set [1] (attachment position H16), the “DAR … to 4.5 days” value is listed as 1.96.

For the compound “AcLys-vc0101 [Example 11, reference compound]”, the DAR in data set [1] (attachment position H7C) is recorded as 1.90; in data set [1] (attachment position H8A) it was 1.82; in data set [1] (attachment position H10), 1.62; in data set [1] (attachment position L11B), 1.87; in data set [1] (attachment position LCQ04) it was 1.88.

“AcLys-vcMMAD [Example 9, reference compound]” came in with a DAR in data set [1] (setting [3]) of 1.97.

For the compound “C6vc0101 [Example 10, reference compound]”, the DAR in data set [1] (setting [3]) was 1.98; in data set [1] (attachment position H7C) it was 1.52; in data set [1] (attachment position H8A), 1.78; in data set [1] (attachment position H10), 1.72; in data set [1] (attachment position H16), 2.00; in data set [1] (attachment position L11B) it was 1.88. The DAR in data set [1] (attachment position LCQ04) is recorded as 1.90; in data set [1] (attachment position N297A), 1.89; in data set [1] (attachment position N297Q) it was 3.94.
